Experimental data as given in patent US20230356187A1.

Assays:
[1] = target: purified antibody (KBIO, Korea); experiment: 1 ml resin column; purified antibody bound, eluted and measured after 15 cycles of 0.3 M NaOH; reference Capto L
[2] = target: purified antibody (KBIO, Korea); experiment: 1 ml resin column; purified antibody bound, eluted and measured after 15 cycles of 0.3 M NaOH (15 min each)

residual activity relative to Cytiva's product (Capto L) [1]: 1.4 times
residual activity (antibody recovered after 15 alkali treatments, relative to the initial binding) [2]: 43.5%
B1: variant protein 4mBF (mBF tetramer) (designed binder)
chain: MPKEEVTIKANLIFADGKTQTAEFKGTFGEATAEAYRYADLLAPENGKYTVDVADKGYTLNIKFAGKEKTPEEMPKEEVTIKANLIFADGKTQTAEFKGTFGEATAEAYRYADLLAPENGKYTVDVADKGYTLNIKFAGKEKTPEEMPKEEVTIKANLIFADGKTQTAEFKGTFGEATAEAYRYADLLAPENGKYTVDVADKGYTLNIKFAGKEKTPEEMPKEEVTIKANLIFADGKTQTAEFKGTFGEATAEAYRYADLLAPENGKYTVDVADKGYTLNIKFAGKEKTPEE
